Results on 3 molecules are retold here after US20230052312A1 (Genentech, published 2023).

The target in experiment [1] is T1, human PD-L1 (human, UniProt Q9NZQ7 19-290).
T1 construct: whole, on cells; Endogenous PD-L1 on cells of human donors and patients; also called programmed death ligand 1
Kind of experiment: flow cytometry on human blood cells (conclusion of Example 1).

Experiment [2] has as its target T1, human PD-L1. In words: flow cytometry on stimulated human whole blood, with or without Atezolizumab. How it is done:
A Live Dead Kit (Invitrogen) was brought to room temperature. The kit included a near-IR fluorescent reactive dye and DMSO. 1× Pharm Lyse was made by mixing 10 mL of 10× Pharm Lyse (BD Biosciences) in 90 mL distilled water. After surface staining the cells in the test tubes, the tubes were vortexed and 3 mL of 1× Pharm Lyse was added to each test tube. The test tubes were vortexed again to enhance lysis of the cells in the presence of Pharm Lyse. The test tubes were then incubated for 15 minutes at room temperature in the dark. Following incubation, the test tubes were centrifuged for 5 minutes at 300 RCF/1500 to 1600 RPM. After centrifugation, the supernatant was aspirated as much as possible without disturbing the cell pellet. The bottom of each test tube was then flicked to break the cell pellet before washing the cells in 3 mL phosphate-buffered saline (PBS). The test tubes were centrifuged once more for 5 minutes at 300 RCF/1500 to 1600 RPM. The supernatant was then aspirated as before without disturbing the cell pellet. The bottom of each test tube was flicked to break the cell pellet and 1 mL of PBS was added to each test tube. A test tube was selected to perform a cell count using the BioRad TC20 cell counter. If the cell count was above 2 million live cells per mL of PBS in the tube, the concentration was adjusted to be 1 million live cells per mL and diluted accordingly using PBS. […]
On the technique in general: In flow cytometry, cells or beads pass a laser one at a time.

T1 sequence (Q9NZQ7 19-290): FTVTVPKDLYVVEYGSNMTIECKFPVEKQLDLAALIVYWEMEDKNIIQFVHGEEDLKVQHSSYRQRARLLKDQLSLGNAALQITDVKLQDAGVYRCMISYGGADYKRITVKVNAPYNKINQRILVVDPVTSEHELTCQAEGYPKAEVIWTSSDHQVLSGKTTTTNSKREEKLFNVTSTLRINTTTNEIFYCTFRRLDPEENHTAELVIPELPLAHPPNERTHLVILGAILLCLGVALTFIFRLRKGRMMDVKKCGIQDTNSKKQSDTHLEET

B1: anti-PD-L1 14D3 antibody (antibody, V domains shown)
VH: QVQLQQSGPELVNPGASVKISCKASGYAFSTSWMNWVKQRPGKGLEWIGRIYPRDGDTYYNGKFKDKATLTADKSSNTAYMQLSSLTSEDSAVYFCTKNPGGYYFDYWGQGTTLTVSS
VL: DIQMTQTTSSLSASLGDRVTINCRASQDIHTYLNWYQQKPDGTVKLLIFYTSRLHSGVPSRFSGSGSGTDYSLTISNLEQEDIATYFCQQVSSLPPWTFGGGTKVEIK
notes: also called clone 14D3; PD-L1 GNE
Regarding B1, in the experiment with human PD-L1 [1], the binding result is “binds”.

B2: anti-PD-L1 AF647 14D3 (antibody, V domains shown)
VH: QVQLQQSGPELVNPGASVKISCKASGYAFSTSWMNWVKQRPGKGLEWIGRIYPRDGDTYYNGKFKDKATLTADKSSNTAYMQLSSLTSEDSAVYFCTKNPGGYYFDYWGQGTTLTVSS
VL: DIQMTQTTSSLSASLGDRVTINCRASQDIHTYLNWYQQKPDGTVKLLIFYTSRLHSGVPSRFSGSGSGTDYSLTISNLEQEDIATYFCQQVSSLPPWTFGGGTKVEIK
notes: also called anti-PD-L1 14D3 antibody labeled with AF647
Consider B2, for which the binding result in the experiment with human PD-L1 [2] was “binds”.

B3: anti-PD-L1 PE 14D3 (antibody, V domains shown)
VH: QVQLQQSGPELVNPGASVKISCKASGYAFSTSWMNWVKQRPGKGLEWIGRIYPRDGDTYYNGKFKDKATLTADKSSNTAYMQLSSLTSEDSAVYFCTKNPGGYYFDYWGQGTTLTVSS
VL: DIQMTQTTSSLSASLGDRVTINCRASQDIHTYLNWYQQKPDGTVKLLIFYTSRLHSGVPSRFSGSGSGTDYSLTISNLEQEDIATYFCQQVSSLPPWTFGGGTKVEIK
notes: also called anti-PD-L1 14D3 antibody labeled with PE
With B3, the binding result with human PD-L1 [2] is “binds”.
